What all share (assay): NADPH oxidation, absorbance microplate reader
One series deals with MdGLYR1 (Malus domestica, UniProt A0A1C8M582). The series is classed as biochemical. The following applies: 50 μM glyoxylate, 50 μM NADPH, NADP+ varied 0-0.5 mM.
The next series has as its target T1, MdGLYR2 (MdGLYR2Δ54) (Malus domestica, UniProt A0A1C8M593).
T1 construct: N-terminal targeting peptide removed (Δ54)
The series is classed as biochemical. The note with it: 50 μM glyoxylate, 50 μM NADPH, NADP+ varied 0-0.5 mM.

Another series addresses T2, AtGLYR2 (AtGLYR2Δ58) (Arabidopsis thaliana, UniProt F4I907).
T2 construct: gene GLYR2
T2 sequence (F4I907 59-358): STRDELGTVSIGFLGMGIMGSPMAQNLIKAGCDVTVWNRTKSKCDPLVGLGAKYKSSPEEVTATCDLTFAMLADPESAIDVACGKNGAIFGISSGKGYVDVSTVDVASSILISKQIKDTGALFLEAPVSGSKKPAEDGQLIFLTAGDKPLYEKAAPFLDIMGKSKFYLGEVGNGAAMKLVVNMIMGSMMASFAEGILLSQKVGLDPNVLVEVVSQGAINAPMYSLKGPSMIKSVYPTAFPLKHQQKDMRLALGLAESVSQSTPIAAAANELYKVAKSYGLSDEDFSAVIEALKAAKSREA
Type of series: biochemical. The note with it: 50 μM NADPH fixed; pH optimum of the enzyme, MES/HEPES/TABS 50 mM each; room temperature. The source says: NADPH oxidation, absorbance microplate reader on AtGLYR2 (AtGLYR2Δ58)

The next series has as its target T3, AtGLYR1 (Arabidopsis thaliana, UniProt Q9LSV0).
T3 construct: gene GLYR1
T3 sequence (Q9LSV0 1-289): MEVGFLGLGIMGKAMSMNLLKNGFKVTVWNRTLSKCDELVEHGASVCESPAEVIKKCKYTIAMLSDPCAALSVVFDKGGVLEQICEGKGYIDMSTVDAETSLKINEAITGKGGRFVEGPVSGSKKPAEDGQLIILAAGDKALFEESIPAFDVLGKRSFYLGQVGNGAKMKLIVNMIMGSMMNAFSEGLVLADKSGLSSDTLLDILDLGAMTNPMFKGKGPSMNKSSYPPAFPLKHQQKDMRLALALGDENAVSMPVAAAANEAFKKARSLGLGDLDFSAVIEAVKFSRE
The series is classed as biochemical. The note with it: 50 μM NADPH fixed; pH optimum of the enzyme, MES/HEPES/TABS 50 mM each; room temperature. From the text: NADPH oxidation, absorbance microplate reader on AtGLYR1

Substrate in series [1]: NC(=O)C1=CN([C@@H]2O[C@H](COP(=O)(O)OP(=O)(O)OC[C@H]3O[C@@H](n4cnc5c(N)ncnc54)[C@H](OP(=O)(O)O)[C@@H]3O)[C@@H](O)[C@H]2O)C=CC1
Type of series: biochemical, Malus domestica. The following applies: 50 μM glyoxylate fixed; pH optimum of the enzyme, MES/HEPES/TABS 50 mM each; room temperature; varied: cofactor. The source says: (§1) NADPH oxidation, absorbance microplate reader on MdGLYR1

Substrate in series [2]: O=CC(=O)O
The series is classed as biochemical, Malus domestica. The note with it: 50 μM NADPH fixed; pH optimum of the enzyme, MES/HEPES/TABS 50 mM each; room temperature.
Excerpt: as §1

Substrate in series [3]: O=CCCC(=O)O
Type of series: biochemical, Malus domestica. The following applies: 50 μM NADPH fixed; pH optimum of the enzyme, MES/HEPES/TABS 50 mM each; room temperature.
Excerpt: as §1

Substrate in series [4]: NC(=O)C1=CN([C@@H]2O[C@H](COP(=O)(O)OP(=O)(O)OC[C@H]3O[C@@H](n4cnc5c(N)ncnc54)[C@H](OP(=O)(O)O)[C@@H]3O)[C@@H](O)[C@H]2O)C=CC1
The series is classed as biochemical, Malus domestica. The note with it: 50 μM glyoxylate fixed; pH optimum of the enzyme, MES/HEPES/TABS 50 mM each; room temperature; varied: cofactor. From the text:
(§2) NADPH oxidation, absorbance microplate reader on MdGLYR2 (MdGLYR2Δ54)
This is another data set of the same source.

Substrate in series [5]: O=CC(=O)O
The series is classed as biochemical, Malus domestica. The note with it: 50 μM NADPH fixed; pH optimum of the enzyme, MES/HEPES/TABS 50 mM each; room temperature.
Excerpt: as §2
This is another data set of the same source.

Substrate in series [6]: O=CCCC(=O)O
The series is classed as biochemical, Malus domestica. The note with it: 50 μM NADPH fixed; pH optimum of the enzyme, MES/HEPES/TABS 50 mM each; room temperature.
Excerpt: as §2
This is another data set of the same source.

Take `NC(=O)c1ccc[n+]([C@@H]2O[C@H](COP(=O)(O)OP(=O)(O)OC[C@H]3O[C@@H](n4cnc5c(N)ncnc54)[C@H](OP(=O)(O)O)[C@@H]3O)[C@@H](O)[C@H]2O)c1` [NADP+]: the “% inhibition at NADP+/NADPH ratio of 5” value on MdGLYR1 and on MdGLYR2 (MdGLYR2Δ54) was ~ 50% in each case.
For `O=CC(=O)O` [glyoxylate], the Km (commonly the concentration of substrate that gives half-maximal velocity) on AtGLYR2 (AtGLYR2Δ58) was found to be 19.3 ± 4 µM; at AtGLYR1, 23.2 ± 3.2 µM.

B1: MdGLYR1 (Malus domestica) (protein)
chain: MEVGFLGLGIMGKAMSMNLLRHGFKVTVWNRTLSKSHELVEHGASVAETPAEVVRKCKYTIAMLSDPSAALSVVFGKDGILEQICAGKSYVDMSTVDADTSSKINEAIKERGGYFLEAPVSGSKKPAEDGQLVILAAGEKALYEEVIPAFNVMGKKSFYLGQVGNGAKMKLVVNMIMGSMMNAFSEGLVLAGRSGLEPSVLLDVLDLGGIANPMFRLKGPTMIQGSHSPAFPLKHQQKDMRLALALGDETATSMPVAAAANEAFKKARSMGLGDLDFSAVYETVKTLEEPSRNSQLR
B1: in series [1], the Km is 3.3 ± 0.5 µM; the Vmax (commonly the top rate of the reaction or transport when substrate is in excess) worked out at 39.4 µmol/min/mg; the kcat (in general, the number of substrate molecules converted per active site and unit of time at saturation) worked out at 22.3 ± 3.4 s⁻¹; the kcat/Km (usually the turnover number divided by the Michaelis constant) was found to be 6.8e+06 ± 278000 M⁻¹ s⁻¹. Also, in series [2], the Km came to 14.1 ± 2.1 µM, the Vmax was found to be 54.7 µmol/min/mg, the kcat amounted to 30.9 ± 3.8 s⁻¹ and the kcat/Km turned out to be 2.23e+06 ± 153000 M⁻¹ s⁻¹. Also, in series [3], the Km came to 1133 ± 273 µM, the Vmax stood at 8.1 µmol/min/mg, the kcat came to 4.6 ± 1.6 s⁻¹ and the kcat/Km stood at 5100 ± 2300 M⁻¹ s⁻¹.

B2: MdGLYR2 (MdGLYR2Δ54) (Malus domestica) (protein)
chain: ASSKDELPARVGFLGLGIMGSPMAQNLIKSGCDVTVWNRTKSKCDPLISLGAKYKPSPEEVAASCDVTFAMLADPESAVAVALGKHGAANGMSSGKGYVDVSTVDVATSKLIGGNIKATGASFLEAPVSGSKKPAEDGQLIFLTAGDKSLYETVASLLDIMGKSRFYLGEVGNGAAMKLVVNMIMGSMMASFSEGLLLTEKIGLDPKVLVEVVSQGAISAPMYSMKGPSMIQSVYPTAFPLKHQQKDMRLALGLAESVSQSTPIAAAANELYKVAKSHGLSDEDFSAVIEALKPKLKH
notes: N-terminal targeting peptide removed (Δ54)
Turning to B2, in series [4], the Km came to 1.8 ± 0.5 µM, the Vmax was 28.2 µmol/min/mg, the kcat is 15.7 ± 1.5 s⁻¹ and the kcat/Km stood at 1.01e+07 ± 2.28e+06 M⁻¹ s⁻¹. In addition, in series [5], the Km was 23.9 ± 1.9 µM, the Vmax came out at 34.3 µmol/min/mg, the kcat amounted to 19.1 ± 2.1 s⁻¹ and the specificity constant (kcat/Km) worked out at 796000 ± 33000 M⁻¹ s⁻¹. In series [6], the Km is 6500 ± 327 µM, the Vmax was determined as 18.6 µmol/min/mg, the kcat is 10.3 ± 1.9 s⁻¹ and the kcat/Km was 1600 ± 200 M⁻¹ s⁻¹.

These data come from publication PMC5558127, “Plant Glyoxylate/Succinic Semialdehyde Reductases: Comparative Biochemical Properties, Function during Chilling Stress, and Subcellular Localization” (Frontiers in Plant Science, 2017).
